Numbered stars: 1 amine (or outer) side, 2 acyl side, 3 side chain; on linkers, the order of the positions; unused ones are H or OH. Bridge positions count the residues as written; N and C are the ends. Side chains are listed from the residue outwards. Ends that are not written are not given here. * marks the point of attachment. C20 diacid = O=C(O)CCCCCCCCCCCCCCCCCCC(=O)*; γGlu = O=C(O)[C@H](CCC(=O)[*:2])N[*:1]; AEEA = NCCOCCOCC(=O)O
T1: human amylin receptor (amylin 3(a) receptor: human calcitonin receptor plus RAMP-3) (human, UniProt P30988 25-474; O60896 24-148, limits assumed)
T1 sequence (looked up) 1: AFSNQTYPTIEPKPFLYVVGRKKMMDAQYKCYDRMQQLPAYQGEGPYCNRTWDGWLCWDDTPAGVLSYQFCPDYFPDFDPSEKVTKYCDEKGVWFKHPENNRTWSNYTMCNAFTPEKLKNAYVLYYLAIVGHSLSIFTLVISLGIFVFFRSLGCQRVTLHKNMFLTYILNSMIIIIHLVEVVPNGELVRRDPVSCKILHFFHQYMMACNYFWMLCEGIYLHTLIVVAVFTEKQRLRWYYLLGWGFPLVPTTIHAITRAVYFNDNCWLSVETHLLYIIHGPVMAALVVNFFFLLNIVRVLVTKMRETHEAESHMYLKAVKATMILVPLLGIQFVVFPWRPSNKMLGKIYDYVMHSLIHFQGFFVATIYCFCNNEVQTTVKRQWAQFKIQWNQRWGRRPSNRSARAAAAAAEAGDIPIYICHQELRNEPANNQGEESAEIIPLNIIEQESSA
T1 sequence (looked up) 2: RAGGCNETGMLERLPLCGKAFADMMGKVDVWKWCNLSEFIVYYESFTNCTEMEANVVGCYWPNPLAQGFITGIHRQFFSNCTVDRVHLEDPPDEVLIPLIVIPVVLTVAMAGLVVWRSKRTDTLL

T2: human calcitonin receptor (human, UniProt P30988 25-474)
T2 sequence (looked up): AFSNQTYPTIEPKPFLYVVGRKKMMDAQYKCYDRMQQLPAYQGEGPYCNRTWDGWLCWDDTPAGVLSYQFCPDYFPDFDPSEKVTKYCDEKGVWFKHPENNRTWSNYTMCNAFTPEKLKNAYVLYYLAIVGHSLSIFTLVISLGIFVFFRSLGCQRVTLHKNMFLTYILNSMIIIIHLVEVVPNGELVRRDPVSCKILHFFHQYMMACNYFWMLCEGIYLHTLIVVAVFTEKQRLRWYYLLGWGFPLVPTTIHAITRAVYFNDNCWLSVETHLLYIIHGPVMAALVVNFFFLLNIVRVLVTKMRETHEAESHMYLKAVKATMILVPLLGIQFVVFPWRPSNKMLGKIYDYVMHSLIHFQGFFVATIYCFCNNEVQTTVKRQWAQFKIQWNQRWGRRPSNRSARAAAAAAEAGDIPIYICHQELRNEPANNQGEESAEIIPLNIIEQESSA


Tests used:
[1] = biological target: T1, human amylin receptor (amylin 3(a) …); assay: cell-based or functional assay
[2] = biological target: T2, human calcitonin receptor; assay: cell-based or functional assay

Binder | hAmylin-R funct. EC50 [1] | Ratio hCT/hAmylin funct. (hCTR EC50 against hAmylin-R EC50) [2] | hCTR funct. EC50 [2]
{C20 diacid-γGlu}-KCNTATCATQRLAEFLRHSSPNFGAIPSSTPVGSNTY-NH2 (disulfide 2-7; SMILES CC[C@H](C)[C@H](NC(=O)[C@H](C)NC(=O)CNC(=O)[C@H](Cc1ccccc1)NC(=O)[C@H](CC(N)=O)NC(=O)[C@@H]1CCCN1C(=O)[C@H](CO)NC(=O)[C@H](CO)NC(=O)[C@H](Cc1c[nH]cn1)NC(=O)[C@H](CCCNC(=N)N)NC(=O)[C@H](CC(C)C)NC(=O)[C@H](Cc1ccccc1)NC(=O)[C@H](CCC(=O)O)NC(=O)[C@H](C)NC(=O)[C@H](CC(C)C)NC(=O)[C@H](CCCNC(=N)N)NC(=O)[C@H](CCC(N)=O)NC(=O)[C@@H](NC(=O)[C@H](C)NC(=O)[C@@H]1CSSC[C@H](NC(=O)[C@H](CCCCN)NC(=O)CC[C@H](NC(=O)CCCCCCCCCCCCCCCCCCC(=O)O)C(=O)O)C(=O)N[C@@H](CC(N)=O)C(=O)N[C@@H]([C@@H](C)O)C(=O)N[C@@H](C)C(=O)N[C@@H]([C@@H](C)O)C(=O)N1)[C@@H](C)O)C(=O)N1CCC[C@H]1C(=O)N[C@@H](CO)C(=O)N[C@@H](CO)C(=O)N[C@H](C(=O)N1CCC[C@H]1C(=O)N[C@H](C(=O)NCC(=O)N[C@@H](CO)C(=O)N[C@@H](CC(N)=O)C(=O)N[C@H](C(=O)N[C@@H](Cc1ccc(O)cc1)C(N)=O)[C@@H](C)O)C(C)C)[C@@H](C)O, also called compound 31) | 0.112 nM | 6.4 | 0.717 nM
K([AEEA-AEEA-γGlu-C20 diacid])CNTATCATQRLANFLRHSSPNFGAIPSSTNVGSETY-NH2 (disulfide 2-7; N-terminus assumed; SMILES CC[C@H](C)[C@H](NC(=O)[C@H](C)NC(=O)CNC(=O)[C@H](Cc1ccccc1)NC(=O)[C@H](CC(N)=O)NC(=O)[C@@H]1CCCN1C(=O)[C@H](CO)NC(=O)[C@H](CO)NC(=O)[C@H](Cc1c[nH]cn1)NC(=O)[C@H](CCCNC(=N)N)NC(=O)[C@H](CC(C)C)NC(=O)[C@H](Cc1ccccc1)NC(=O)[C@H](CC(N)=O)NC(=O)[C@H](C)NC(=O)[C@H](CC(C)C)NC(=O)[C@H](CCCNC(=N)N)NC(=O)[C@H](CCC(N)=O)NC(=O)[C@@H](NC(=O)[C@H](C)NC(=O)[C@@H]1CSSC[C@H](NC(=O)[C@@H](N)CCCCNC(=O)COCCOCCNC(=O)COCCOCCNC(=O)CC[C@H](NC(=O)CCCCCCCCCCCCCCCCCCC(=O)O)C(=O)O)C(=O)N[C@@H](CC(N)=O)C(=O)N[C@@H]([C@@H](C)O)C(=O)N[C@@H](C)C(=O)N[C@@H]([C@@H](C)O)C(=O)N1)[C@@H](C)O)C(=O)N1CCC[C@H]1C(=O)N[C@@H](CO)C(=O)N[C@@H](CO)C(=O)N[C@H](C(=O)N[C@@H](CC(N)=O)C(=O)N[C@H](C(=O)NCC(=O)N[C@@H](CO)C(=O)N[C@@H](CCC(=O)O)C(=O)N[C@H](C(=O)N[C@@H](Cc1ccc(O)cc1)C(N)=O)[C@@H](C)O)C(C)C)[C@@H](C)O, also called compound 25) | 0.217 nM | 46.2 | 10 nM
K([AEEA-γGlu-C20 diacid])CNTATCATQRLANFLRHSSPNFGAIPSSTNVGSNTY-NH2 (disulfide 2-7; N-terminus assumed; SMILES CC[C@H](C)[C@H](NC(=O)[C@H](C)NC(=O)CNC(=O)[C@H](Cc1ccccc1)NC(=O)[C@H](CC(N)=O)NC(=O)[C@@H]1CCCN1C(=O)[C@H](CO)NC(=O)[C@H](CO)NC(=O)[C@H](Cc1c[nH]cn1)NC(=O)[C@H](CCCNC(=N)N)NC(=O)[C@H](CC(C)C)NC(=O)[C@H](Cc1ccccc1)NC(=O)[C@H](CC(N)=O)NC(=O)[C@H](C)NC(=O)[C@H](CC(C)C)NC(=O)[C@H](CCCNC(=N)N)NC(=O)[C@H](CCC(N)=O)NC(=O)[C@@H](NC(=O)[C@H](C)NC(=O)[C@@H]1CSSC[C@H](NC(=O)[C@@H](N)CCCCNC(=O)COCCOCCNC(=O)CC[C@H](NC(=O)CCCCCCCCCCCCCCCCCCC(=O)O)C(=O)O)C(=O)N[C@@H](CC(N)=O)C(=O)N[C@@H]([C@@H](C)O)C(=O)N[C@@H](C)C(=O)N[C@@H]([C@@H](C)O)C(=O)N1)[C@@H](C)O)C(=O)N1CCC[C@H]1C(=O)N[C@@H](CO)C(=O)N[C@@H](CO)C(=O)N[C@H](C(=O)N[C@@H](CC(N)=O)C(=O)N[C@H](C(=O)NCC(=O)N[C@@H](CO)C(=O)N[C@@H](CC(N)=O)C(=O)N[C@H](C(=O)N[C@@H](Cc1ccc(O)cc1)C(N)=O)[C@@H](C)O)C(C)C)[C@@H](C)O, also called compound 41) | 0.26 nM | 16.7 | 4.35 nM
K([AEEA-C20 diacid])CNTATCATQRLANFLRHSSPNFGAIPSSTNVGSNTY-NH2 (disulfide 2-7; N-terminus assumed; SMILES CC[C@H](C)[C@H](NC(=O)[C@H](C)NC(=O)CNC(=O)[C@H](Cc1ccccc1)NC(=O)[C@H](CC(N)=O)NC(=O)[C@@H]1CCCN1C(=O)[C@H](CO)NC(=O)[C@H](CO)NC(=O)[C@H](Cc1c[nH]cn1)NC(=O)[C@H](CCCNC(=N)N)NC(=O)[C@H](CC(C)C)NC(=O)[C@H](Cc1ccccc1)NC(=O)[C@H](CC(N)=O)NC(=O)[C@H](C)NC(=O)[C@H](CC(C)C)NC(=O)[C@H](CCCNC(=N)N)NC(=O)[C@H](CCC(N)=O)NC(=O)[C@@H](NC(=O)[C@H](C)NC(=O)[C@@H]1CSSC[C@H](NC(=O)[C@@H](N)CCCCNC(=O)COCCOCCNC(=O)CCCCCCCCCCCCCCCCCCC(=O)O)C(=O)N[C@@H](CC(N)=O)C(=O)N[C@@H]([C@@H](C)O)C(=O)N[C@@H](C)C(=O)N[C@@H]([C@@H](C)O)C(=O)N1)[C@@H](C)O)C(=O)N1CCC[C@H]1C(=O)N[C@@H](CO)C(=O)N[C@@H](CO)C(=O)N[C@H](C(=O)N[C@@H](CC(N)=O)C(=O)N[C@H](C(=O)NCC(=O)N[C@@H](CO)C(=O)N[C@@H](CC(N)=O)C(=O)N[C@H](C(=O)N[C@@H](Cc1ccc(O)cc1)C(N)=O)[C@@H](C)O)C(C)C)[C@@H](C)O, also called compound 43) [N^ε1-[2-[2-[2-(19-carboxynonadecanoylamino)ethoxy]ethoxy]acetyl]-[Arg17,Pro21,Pro27]-h-amylin] | 0.141 nM | 6.5 | 0.92 nM

The next lines start with the values.

hAmylin-R funct. EC50 [1] | Ratio hCT/hAmylin funct. (hCTR EC50 against hAmylin-R EC50) [2] | hCTR funct. EC50 [2] | Binder
0.134 nM | – | 1.68 nM | {C20 diacid-γGlu}-KCNTATCATQRLAHFLRHSSPNFGAIPSSTNVGSETY-NH2 (disulfide 2-7; SMILES CC[C@H](C)[C@H](NC(=O)[C@H](C)NC(=O)CNC(=O)[C@H](Cc1ccccc1)NC(=O)[C@H](CC(N)=O)NC(=O)[C@@H]1CCCN1C(=O)[C@H](CO)NC(=O)[C@H](CO)NC(=O)[C@H](Cc1c[nH]cn1)NC(=O)[C@H](CCCNC(=N)N)NC(=O)[C@H](CC(C)C)NC(=O)[C@H](Cc1ccccc1)NC(=O)[C@H](Cc1c[nH]cn1)NC(=O)[C@H](C)NC(=O)[C@H](CC(C)C)NC(=O)[C@H](CCCNC(=N)N)NC(=O)[C@H](CCC(N)=O)NC(=O)[C@@H](NC(=O)[C@H](C)NC(=O)[C@@H]1CSSC[C@H](NC(=O)[C@H](CCCCN)NC(=O)CC[C@H](NC(=O)CCCCCCCCCCCCCCCCCCC(=O)O)C(=O)O)C(=O)N[C@@H](CC(N)=O)C(=O)N[C@@H]([C@@H](C)O)C(=O)N[C@@H](C)C(=O)N[C@@H]([C@@H](C)O)C(=O)N1)[C@@H](C)O)C(=O)N1CCC[C@H]1C(=O)N[C@@H](CO)C(=O)N[C@@H](CO)C(=O)N[C@H](C(=O)N[C@@H](CC(N)=O)C(=O)N[C@H](C(=O)NCC(=O)N[C@@H](CO)C(=O)N[C@@H](CCC(=O)O)C(=O)N[C@H](C(=O)N[C@@H](Cc1ccc(O)cc1)C(N)=O)[C@@H](C)O)C(C)C)[C@@H](C)O, also called compound 30)
0.212 nM | 29.9 | 6.34 nM | K([AEEA-γGlu-C20 diacid])CNTATCATQRLANFLRHSSPNFGAIPSSTNVGSETY-NH2 (disulfide 2-7; N-terminus assumed; SMILES CC[C@H](C)[C@H](NC(=O)[C@H](C)NC(=O)CNC(=O)[C@H](Cc1ccccc1)NC(=O)[C@H](CC(N)=O)NC(=O)[C@@H]1CCCN1C(=O)[C@H](CO)NC(=O)[C@H](CO)NC(=O)[C@H](Cc1c[nH]cn1)NC(=O)[C@H](CCCNC(=N)N)NC(=O)[C@H](CC(C)C)NC(=O)[C@H](Cc1ccccc1)NC(=O)[C@H](CC(N)=O)NC(=O)[C@H](C)NC(=O)[C@H](CC(C)C)NC(=O)[C@H](CCCNC(=N)N)NC(=O)[C@H](CCC(N)=O)NC(=O)[C@@H](NC(=O)[C@H](C)NC(=O)[C@@H]1CSSC[C@H](NC(=O)[C@@H](N)CCCCNC(=O)COCCOCCNC(=O)CC[C@H](NC(=O)CCCCCCCCCCCCCCCCCCC(=O)O)C(=O)O)C(=O)N[C@@H](CC(N)=O)C(=O)N[C@@H]([C@@H](C)O)C(=O)N[C@@H](C)C(=O)N[C@@H]([C@@H](C)O)C(=O)N1)[C@@H](C)O)C(=O)N1CCC[C@H]1C(=O)N[C@@H](CO)C(=O)N[C@@H](CO)C(=O)N[C@H](C(=O)N[C@@H](CC(N)=O)C(=O)N[C@H](C(=O)NCC(=O)N[C@@H](CO)C(=O)N[C@@H](CCC(=O)O)C(=O)N[C@H](C(=O)N[C@@H](Cc1ccc(O)cc1)C(N)=O)[C@@H](C)O)C(C)C)[C@@H](C)O, also called compound 26)

— patent publication US20140087995A1 (published 2014)
